According to paper PMC12232886, “Multiple and Alternative Sites Make Tau Protein an Adaptable Sticky Surface for the SH3 Domain of Fyn Kinase” (Angewandte Chemie (International Ed. in English), 2025):
Where two headings read alike, the source gives them in different places. One block for each substance: values may come before it.

Target: T1, Fyn-SH3 (Homo sapiens, UniProt P06241)
T1 construct: 82-143) was cloned into the pET-TEV; His-tag (TEV-cleavable, pET-TEV vector) (N, cleaved yes); made in house; host or cells: E. coli BL21(DE3)
T1 sequence (P06241 82-143): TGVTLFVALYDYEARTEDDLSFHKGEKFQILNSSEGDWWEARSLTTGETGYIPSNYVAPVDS
Test: Isothermal titration calorimetry (ITC), Fyn-SH3 titrated into Tau fragments
Type: binding
Conditions: 20 mM potassium phosphate pH 6.8, 25 °C, error from data fitting
Text: Figure 3 ITC analysis of Fyn‐SH3 binding to Tau. ITC measurements of Fyn‐SH3 titrated into Tau fragments 151–372 (a), 151–243 (b), 151–372 Δ175–179 (c), 151–372 Δ215–219 (d), 151–372 Δ175–179 Δ215–219 (e). The upper and lower panels show the raw thermograms (DP, differential power), and the integrated heats corrected for the heat of dilution (ΔH), respectively. The blue line in the latter panels represents the fit curve. […]
Isothermal Titration Calorimetry (ITC)
For ITC measurements, purified Fyn-SH3 and Tau proteins were dialyzed overnight against 20 mM potassium phosphate buffer (pH 6.8). Concentrations of proteins were measured using a NanoDrop instrument (Thermo Fisher Scientific), by using molar extinction coefficients at 280 nm. Calorimetric titrations were carried out on a MicroCal PEAQ-ITC instrument (Malvern) at 25 °C. The sample cell contained 20 μM Tau protein and the injection syringe 0.6 mM or 1 mM solution of Fyn-SH3. Only for the Tau mutant 151-372 Δ175-179 Δ215-219, the experiment was conducted with 60 μM Tau protein in the cell and 1.2 mM SH3 in the syringe. Titrations were carried out with a preliminary 0.4 μl injection, followed by 2 μl injections with time intervals of 150 sec, with stirring rate of 500 rpm and reference power of 10 μcal/sec. A blank titration (ligand into buffer) was recorded in the same experimental conditions and the dilution heats were subtracted to the data.
Binding isotherms were analyzed with the MicroCal PEAQ-ITC analysis software, using the two-sets of sites or the one-set of sites fitting models. […]

[1] = one-set of sites model, 20 μM Tau in cell, 0.6 mM or 1 mM SH3 in syringe, read-out: Kd

Substance: Tau 151–243: recombinant Tau fragment 151-243 lacking the HSPR3 and the MBD
Kd [1]: ~12 µM

Substance: Tau 151–372 Δ175‐179 Δ215‐219: Tau 151-372 double deletion mutant lacking the PxxP motifs in HSPR1 and HSPR2
Kd (two-sets of sites model, site I, 60 μM Tau in cell, 1.2 mM SH3 in syringe, listed as Δ175–179 Δ215–219, read-out: KdI): 10 µM | Kd (two-sets of sites model, site I, 60 μM Tau in cell, 1.2 mM SH3 in syringe, read-out: KdI): 10.3 ± 2.2 µM | Kd (two-sets of sites model, site II, 60 μM Tau in cell, 1.2 mM SH3 in syringe, read-out: KdII): 347 ± 79 µM

Substance: Tau 151–372 Δ175‐179: Tau 151-372 deletion mutant lacking the PxxP motifs in HSPR1
Kd (one-set of sites model, 20 μM Tau in cell, 0.6 mM or 1 mM SH3 in syringe, listed as Δ175–179, read-out: Kd): 12 µM | Kd [1]: 12.2 ± 5.4 µM

More lines, now with the values ahead:

Kd (one-set of sites model, 20 μM Tau in cell, 0.6 mM or 1 mM SH3 in syringe, listed as Tau 151–372 Δ215–219, read-out: Kd): ~12 µM | Kd (one-set of sites model, 20 μM Tau in cell, 0.6 mM or 1 mM SH3 in syringe, listed as Δ215–219, read-out: Kd): 13 µM | Kd [1]: 12.7 ± 4.4 µM
Substance: Tau 151–372 Δ215‐219: Tau 151-372 deletion mutant lacking the PxxP motifs in HSPR2

Kd (two-sets of sites model, site I, 20 μM Tau in cell, 0.6 mM or 1 mM SH3 in syringe, read-out: KdI): 2.5 ± 1.1 µM | Kd (two-sets of sites model, site II, 20 μM Tau in cell, 0.6 mM or 1 mM SH3 in syringe, listed as Tau151‐372, read-out: KdII): 38 µM | Kd (two-sets of sites model, site II, 20 μM Tau in cell, 0.6 mM or 1 mM SH3 in syringe, read-out: KdII): 37.6 ± 22.7 µM
Substance: Tau 151–372: recombinant Tau fragment 151-372, his-tag cleaved, containing all three HSPRs
